Test results: US20180037904A1

B1: recombinant Oryza sativa Rubisco activase (RCA), beta (short) isoform (protein)
chain: MAKELDEGKQTDQDRWKGLAYDISDDQQDITRGKGFVDSLFQAPTGDGTHEAVLSSYEYLSQGLRTYDFDNTMGGFYIAPAFMDKLVVHISKNFMTLPNIKVPLILGIWGGKGQGKSFQCELVFAKMGINPIMMSAGELESGNAGEPAKLIRQRYREAADIIKKGKMCCLFINDLDAGAGRMGGTTQYTVNNQMVNATLMNIADNPTNVQLPGMYNKEDNPRVPIIVTGNDFSTLYAPLIRDGRMEKFYWAPTRDDRVGVCKGIFRTDNVPDEDIVKIVDSFPGQSIDFFGALRARVYDDEVRKWVSDTGVENIGKRLVNSREGPPEFEQPKMTIEKLMEYGYMLVKEQENVKRVQLAEQYLSEAALGDANSDAMKTGSFYGSAPSS
B2: leaf-extracted RCA from Oryza sativa (partially purified, alpha and beta isoforms) (protein)
chain 1: KELDEGKQTDQDRWKGLAYDISDDQQDITRGKGFVDSLFQAPTGDGTHEAVLSSYEYLSQGLRTYDFDNTMGGFYIAPAFMDKLVVHISKNFMTLPNIKVPLILGIWGGKGQGKSFQCELVFAKMGINPIMMSAGELESGNAGEPAKLIRQRYREAADIIKKGKMCCLFINDLDAGAGRMGGTTQYTVNNQMVNATLMNIADNPTNVQLPGMYNKEDNPRVPIIVTGNDFSTLYAPLIRDGRMEKFYWAPTRDDRVGVCKGIFRTDNVPDEDIVKIVDSFPGQSIDFFGALRARVYDDEVRKWVSDTGVENIGKRLVNSREGPPEFEQPKMTIEKLMEYGYMLVKEQENVKRVQLAEQYLSEAALGDANSDAMKTGSFYGQGAQQAGNLPVPEGCTDPVAKNFDPTARSDDGSCLYTF
chain 2: KELDEGKQTDQDRWKGLAYDISDDQQDITRGKGFVDSLFQAPTGDGTHEAVLSSYEYLSQGLRTYDFDNTMGGFYIAPAFMDKLVVHISKNFMTLPNIKVPLILGIWGGKGQGKSFQCELVFAKMGINPIMMSAGELESGNAGEPAKLIRQRYREAADIIKKGKMCCLFINDLDAGAGRMGGTTQYTVNNQMVNATLMNIADNPTNVQLPGMYNKEDNPRVPIIVTGNDFSTLYAPLIRDGRMEKFYWAPTRDDRVGVCKGIFRTDNVPDEDIVKIVDSFPGQSIDFFGALRARVYDDEVRKWVSDTGVENIGKRLVNSREGPPEFEQPKMTIEKLMEYGYMLVKEQENVKRVQLAEQYLSEAALGDANSDAMKTGSFYGSAPSS
B3: recombinant Oryza sativa Rubisco activase (RCA), alpha (long) isoform (protein)
chain: MAKELDEGKQTDQDRWKGLAYDISDDQQDITRGKGFVDSLFQAPTGDGTHEAVLSSYEYLSQGLRTYDFDNTMGGFYIAPAFMDKLVVHISKNFMTLPNIKVPLILGIWGGKGQGKSFQCELVFAKMGINPIMMSAGELESGNAGEPAKLIRQRYREAADIIKKGKMCCLFINDLDAGAGRMGGTTQYTVNNQMVNATLMNIADNPTNVQLPGMYNKEDNPRVPIIVTGNDFSTLYAPLIRDGRMEKFYWAPTRDDRVGVCKGIFRTDNVPDEDIVKIVDSFPGQSIDFFGALRARVYDDEVRKWVSDTGVENIGKRLVNSREGPPEFEQPKMTIEKLMEYGYMLVKEQENVKRVQLAEQYLSEAALGDANSDAMKTGSFYGQGAQQAGNLPVPEGCTDPVAKNFDPTARSDDGSCLYTF
B4: recombinant Oryza australiensis Rubisco activase (RCA), alpha (long) isoform (protein)
chain: MAKELDEDKQTDQDKWKGLAYDISDDQQDITRGKGLVDSLFQAPMGDGTHEAVLSSYEYLSQGLKMLDNTMGGFYIAPAFMDKLVVHISKNFMALPNIKVPLILGIWGGKGQGKSFQCELVFSKMGINPIMMSAGELESGNAGEPAKLIRQRYREAADIIKKGKMCCLFINDLDAGAGRMGGTTQYTVNNQMVNATLMNIADNPTNVQLPGMYNKEDNPRVPIIVTGNDFSTLYAPLIRDGRMEKFYWAPTRDDRVGVCKGIFRTDNVPDEDIVKIVDSFPGQSIDFFGALRARVYDDEVRKWVSDTGVENIGKKLVNSREGPPEFEQPKMTIDKLMEYGHMLVREQENVKRVQLADKYLSEAALGDANSDAMKTGSFYGQGAQQGGNLPVPEGCTDPVAKNFDPTARSDDGSCLYTF
B5: recombinant Oryza australiensis Rubisco activase (RCA), beta (short) isoform (protein)
chain: MAKELDEDKQTDQDKWKGLAYDISDDQQDITRGKGLVDSLFQAPMGDGTHEAVLSSYEYLSQGLKMLDNTMGGFYIAPAFMDKLVVHISKNFMALPNIKVPLILGIWGGKGQGKSFQCELVFSKMGINPIMMSAGELESGNAGEPAKLIRQRYREAADIIKKGKMCCLFINDLDAGAGRMGGTTQYTVNNQMVNATLMNIADNPTNVQLPGMYNKEDNPRVPIIVTGNDFSTLYAPLIRDGRMEKFYWAPTRDDRVGVCKGIFRTDNVPDEDIVKIVDSFPGQSIDFFGALRARVYDDEVRKWVSDTGVENIGKKLVNSREGPPEFEQPKMTIDKLMEYGHMLVREQENVKRVQLADKYLSEAALGDANSDAMKTGSFYGAAPSS
B6: leaf-extracted RCA from Oryza australiensis (partially purified, alpha and beta isoforms) (protein)
chain 1: KELDEDKQTDQDKWKGLAYDISDDQQDITRGKGLVDSLFQAPMGDGTHEAVLSSYEYLSQGLKMLDNTMGGFYIAPAFMDKLVVHISKNFMALPNIKVPLILGIWGGKGQGKSFQCELVFSKMGINPIMMSAGELESGNAGEPAKLIRQRYREAADIIKKGKMCCLFINDLDAGAGRMGGTTQYTVNNQMVNATLMNIADNPTNVQLPGMYNKEDNPRVPIIVTGNDFSTLYAPLIRDGRMEKFYWAPTRDDRVGVCKGIFRTDNVPDEDIVKIVDSFPGQSIDFFGALRARVYDDEVRKWVSDTGVENIGKKLVNSREGPPEFEQPKMTIDKLMEYGHMLVREQENVKRVQLADKYLSEAALGDANSDAMKTGSFYGQGAQQGGNLPVPEGCTDPVAKNFDPTARSDDGSCLYTF
chain 2: KELDEDKQTDQDKWKGLAYDISDDQQDITRGKGLVDSLFQAPMGDGTHEAVLSSYEYLSQGLKMLDNTMGGFYIAPAFMDKLVVHISKNFMALPNIKVPLILGIWGGKGQGKSFQCELVFSKMGINPIMMSAGELESGNAGEPAKLIRQRYREAADIIKKGKMCCLFINDLDAGAGRMGGTTQYTVNNQMVNATLMNIADNPTNVQLPGMYNKEDNPRVPIIVTGNDFSTLYAPLIRDGRMEKFYWAPTRDDRVGVCKGIFRTDNVPDEDIVKIVDSFPGQSIDFFGALRARVYDDEVRKWVSDTGVENIGKKLVNSREGPPEFEQPKMTIDKLMEYGHMLVREQENVKRVQLADKYLSEAALGDANSDAMKTGSFYGAAPSS

Tests used:
[1] = biological target: Rubisco (Ribulose-1,5-bis-phosphate carboxylase/oxygenase) purified from Oryza sativa leaves (Oryza sativa) (UniProt P0C512); experiment: cell-based or functional assay
[2] = biological target: Rubisco from wheat (wheat) (UniProt P11383); experiment: cell-based or functional assay
[3] = biological target: Rubisco (Ribulose-1,5-bis-phosphate carboxylase/oxygenase) purified from Oryza sativa leaves, P0C512

Molecule | concentration-dependent specific activity of ATP hydrolysis | temperature stability of ATP hydrolysis | Rubisco activation activity of recombinant RCA at 30 and 36° C. [3] | also measured
leaf-extracted RCA from Oryza sativa (partially purified, alpha and beta isoforms) (from UniProt P93431 49-466; P93431 49-428) (enzyme) |  |  |  | reduction in fraction of Rubisco activated at comparable temperatures [1]: 80%
beta isoform of RCA extracted from wheat leaves (0.2 M KCl anion-exchange fraction) (enzyme) |  |  |  | activation of wheat Rubisco by leaf-extracted beta isoform at less than 34° C., relative to the rice RCA isoforms [2]: > 2 fold
B1 | specific activity of ATP hydrolysis falls at low RCA concentrations | both being heat stable, not losing activity until 40 °C | the β isoform of RCAOs has higher activity than RCAOa | 
B2 |  |  |  | peak in RCA activation performance (temperature of maximal Rubisco activation) [3]: 29.9±0.5 °C for O. sativa
B3 | specific activity of ATP hydrolysis falls at low RCA concentrations | both being heat stable, not losing activity until 40 °C | there is little difference in activity of the α isoform between the species | 
B4 | specific activity of ATP hydrolysis falls at low RCA concentrations | both being heat stable, not losing activity until 40 °C | there is little difference in activity of the α isoform between the species | 
B5 | specific activity of ATP hydrolysis falls at low RCA concentrations | both being heat stable, not losing activity until 40 °C | the β isoform of RCAOs has higher activity than RCAOa | 
B6 |  |  |  | absolute rate of Rubisco activation at 42° C. relative to Os RCA [3]: at 42 °C Oa had an absolute rate of activity four-times that of Os; drop in Rubisco activation activity at 42° C. relative to 30° C., RCA at 0.96 mg·mL^-1 [3]: close to a 50% drop in activity at 42 °C relative to 30 °C; fall in Rubisco activation activity at 42° C. relative to 30° C., RCA at 0.24 and 0.49 mg·mL^-1 [3]: less than a 20% fall at concentrations of 0.24 and 0.49 mg·mL^-1; peak in RCA activation performance (temperature of maximal Rubisco activation) [3]: 33.0±0.3 °C for O. australiensis
